Measurements from doi:10.1101/2023.08.31.555674, “New structural features of the APC/C from high-resolution cryo-EM structures of apo-APC/C and APC/C^CDH1:EMI1 complexes” (bioRxiv, 2023).

Key:
[1] = target: T1, APC1 subunit of the anaphase-promoting complex/cyclosome (human, UniProt Q9H1A4 1-1944); assay: cryo-EM structure; APC/C^CDH1:EMI1 ternary complex, 2.9 Å; complex and grids prepared as described previously [19]; Titan Krios, Falcon 3; APC/C subunits co-expressed, complex purified; conditions: both partners purified
T1 construct: APC1, human, subunit of recombinant APC/C; Stood assembled in the unphosphorylated recombinant APC/C; source: recombinant human APC/C, modified MultiBac system, as described previously [51,52]; purified within the APC/C

[2] = target: T2, APC8 subunit of the anaphase-promoting complex/cyclosome (human, UniProt Q9UJX2 1-597); assay: as above; conditions: both partners purified
T2 construct: APC8, human, subunit of recombinant APC/C; Stood assembled in the recombinant APC/C; the contacts are told of the copy APC8(B); also called APC8(B); source: recombinant human APC/C, modified MultiBac system, as described previously [51,52]; purified within the APC/C

binding result [1]: binds
binding result [2]: binds
B1: CDH1 (APC/C coactivator subunit) (natural protein, human, UniProt Q9UM11-2 1-493, looked up)
chain: MDQDYERRLLRQIVIQNENTMPRVTEMRRTLTPASSPVSSPSKHGDRFIPSRAGANWSVNFHRINENEKSPSQNRKAKDATSDNGKDGLAYSALLKNELLGAGIEKVQDPQTEDRRLQPSTPEKKGLFTYSLSTKRSSPDDGNDVSPYSLSPVSNKSQKLLRSPRKPTRKISKIPFKVLDAPELQDDFYLNLVDWSSLNVLSVGLGTCVYLWSACTSQVTRLCDLSVEGDSVTSVGWSERGNLVAVGTHKGFVQIWDAAAGKKLSMLEGHTARVGALAWNAEQLSSGSRDRMILQRDIRTPPLQSERRLQGHRQEVCGLKWSTDHQLLASGGNDNKLLVWNHSSLSPVQQYTEHLAAVKAIAWSPHQHGLLASGGGTADRCIRFWNTLTGQPLQCIDTGSQVCNLAWSKHANELVSTHGYSQNQILVWKYPSLTQVAKLTGHSYRVLYLAMSPDGEAIVTGAGDETLRFWNVFSKTRSTKESVSVLNLFTRIR
notes: CDH1, human; the last residue printed for CDH1 is 493 (chimera: residues 24 to 493 of CDH1), so the isoform of 493 residues is meant; the tag is told in the methods for CDH1 in general; source: expressed and purified as described previously [19,23,27]
